In US11402384B2 (Duke University, priority 2015, dated 2022):
Like-named read-outs stand apart in the source and are kept apart here. Marks after values point to notes of the source that are not given here.

Experimental: Eight homologs that were predicted to be glucose-binding proteins (FIG. 4, Table 3) were selected to probe different degrees of sequence identity to the ttGBP1 seed, and their glucose-binding properties were determined experimentally. These experiments comprised four successive steps: • 1. Synthetic gene construction. The amino acid sequence of the homology leads were backtranslated into DNA sequences. These were optimized for directing heterologous cytoplasmic expression of the protein homologues in E. coli, using either the OrfOpt or OrfMorph programs. These programs predict mRNA sequences that direct high-level protein expression in E. coli. The predicted gene sequences were assembled de novo from synthetic oligonucleotides. • 2. Heterologous protein expression of the homologues in E. coli. Plasmids carrying the synthetic expression constructs (see above) were transformed into KRX competent cells (Promega). Protein production was induced in bacterial cultures of these cultures, as described in the Materials and Methods. • 3. Purification of successfully expressed protein using immobilized metal affinity chromatography. • 4. Verification of glucose binding. Determination of the glucose-binding properties of the purified proteins using a thermal stability shift assay.
Analysis of glucose-binding properties using thermal melts. The thermal stability of purified GBP candidate proteins was determined by measuring the temperature-dependence of the fluorescence signal of an extrinsically added dye, SYPRO, using a Roche LightCycler (Layton and Hellinga, 2010, Biochemistry, 49, 10831-41). The total fluorescence intensity, S, is given by S=βFfF+βUfU 11 where fF and fU are the fractions of protein in the folded and unfolded states, respectively, and βF and βU the fluorescence baselines of these two states. To get the fractions of the two states, we have
[formula] where KU(T) is the temperature-dependent unfolding equilibrium constant, which by the van't Hoff approximation is given by
[formula] Where T is the temperature, Tm, the unfolding reaction transition mid-point temperature, and ΔHU the enthalpy of unfolding.

[1] = ligand-free protein, SYPRO Orange, Roche LightCycler

B1: tnGBP4: glucose-binding protein from Thermotoga neapolitana, SEQ ID NO: 12 (protein)
chain: MLEIFSWWTAGGEAEALEALIKVFNKYYPDVEVINATVAGGAGTNAKAVLKTRILGGNPPDSFQVHAGMELIDTYVIPGYMTPITNLLEQWGVMDKFPKGILEMASYEGEIYSIPVNVHRGNVVFYNKKIAEEIGMNEPPKTWDEFIMYLQKAKEKGYVGLALGDKNKWTALHLFETILLGVLGPNDYNGLWKGEVSFNDPRIRRAFEIMNKLLDYVNEDHAALAWQDATRLVYEGKALANVMGDWAEGYLKSVGWEPGKDFGWFAVPETQNAFMVVSDTFGLPKNAPHKENAVKWLKVVASVEGQDAFNPIKGSIPARLDADRSKYDIYLQWSMEDFATKALTPSIAHGSAAPEGFVTTLNDIINRFVTTRDIDSALEELLMAAEDEGYLVEGGSHHHHHH
modifications: tnGBP4 (with signal peptide replaced with M and a GGSHHHHHH at C-terminus)
Thermostability ^apoTm [1]: >100 °C

B2: koGBP5: glucose-binding protein from Kosmotoga olearia, SEQ ID NO: 13 (protein)
chain: MLEIFSWWTGGGEEEGLLALFDVFHKYYPDVEIINATVAGGAGTNAKAVLKTRMLGGNPPDSFQVHGGMELIDTYVVTGMMEPITDLLEEWGIIDKFPEDILKIASYKGEVYSIPVNVHRGNVVFYNKAILEEVGIEKVPSTWPEFIEVLKKIKKAGYIPLALGDKNKWTATHLFEDILLSTLGPYNYNGLWNGRTSFEHQGVKEALEIFKELMNYVNPNHASLTWQDATLLVFEGKAAFNVMGDWAEGYLKTLGWTPGKEFGWMVVPGTKGSFMVVTDTFGLPKNAPHRENAIKWLKIISSVEGQDTFNPIKGSIPARIDADRSLYDDYLIWSMDDFATNALCPSIIHGSAAPEAFVTALNDTINMFITRKDVKKALKEIIYAAEDYLEGGSHHHHHH
modifications: koGBP5 (with signal peptide replaced with M and a GGSHHHHHH at C-terminus)
Thermostability ^apoTm [1]: >100 °C

B3: bhGBP6: glucose-binding protein from Bacillus halodurans, SEQ ID NO: 14 (protein)
chain: MLEIFSWWTGAGEEDGLLALIELFEEKHPEIEVDNAAVAGGAGTNAKAVLTSRMQGNDPPGTFQVHGGAELNDSWVAAGQMDPLNDLFEAEGWADKFPEELIELVSKDGNIYSVPVNIHRGNVLWYNTEIFEEHGLEVPTTFEEFFDVADALQEAGVTPLALGDREPWAATHLFETVLLGTLGADDYNKLWSGEVGMDDPRVEEAAEIFIRMLDYVNEDHSSRNWQDASQLVAQGEAAMNVMGDWAKGYFVNDLNLAVKEDFGWAATPGTEGTFMVITDTFGLPTGVENPEVVKSFLAVLGSQEGQDAFNPLKGSIPARVDADVSKYDEYGQETIEDFKSAELSPSLAHGSAANEGFLTQVNQAINIFVTQKDVDSFVDSLKQYQPGGSHHHHHH
modifications: bhGBP6 (with signal peptide replaced with M and a GGSHHHHHH at C-terminus)
Thermostability ^apoTm [1]: 53 °C

B4: smGBP7: glucose-binding protein from Staphylothermus marinus, SEQ ID NO: 15 (protein)
chain: MELVIYHWWTAGGEREAINAVFQVFKQKYPNIQIVENPVAGGAGSVMKSVIIGLLAAGTPPDTFQVHAGAELKEYVDAGYLAPIDDIWSKLGLDKVIPSTLQVMAKFNGHYYAVPIDVHRSNVLWYNPKIFNELGIINKFGDPRNWSVDTLLQVARYIKQQRPDIAPIALASRNKWPVTHLFEVLLANAGGPETYVKFFTGKFNYNDPNDPVVQTVKKVLTVMATMAKEGLFNSNHPELTWDQAAALVAEGKAAMFIHGDWVAGYYIANNYKYGKDWAAAPFPKNIFILLSDAFELPKNAPHPEAAKDWLMVVGSKEAQEKFNLIKGSIPARTDVSPKYPDPYRPETAEDFQKSTLIPSAVHGGIAKEAFMTDLHNILTSMLTAVSVGTPVDNAVNTALAQILQSVKTSGLASFWKGYTIDYFITKRGGSHHHHHH
modifications: smGBP7 (with signal peptide replaced with M and a GGSHHHHHH at C-terminus)
Thermostability ^apoTm (determined using fluorescent Acrylodan and/or Badan conjugates): 40^f ° C.

B5: asGBP8: glucose-binding protein from Arthrobacter sp., SEQ ID NO: 16 (protein)
chain: MKLEITSWWTSGSEADALNVLIDGVKAAKPGLSVDNAAVSGGGGANARQALAARLQAGSPPDAWQVHPAGQLKSYVDGGQVADLTDLWTEGDWASQMPKDVAEAQQVDGKYYTVPIGVHRGNVLWTNPAVLSKANVTIDADAGIDGLISSLEQVQASGTTPLALGDKDIFASSQLLESLIMSRAGADNWTKLFTSEYSFDAPEVKQALEDYKTILSFANKDHSAITWDEAAKKMADGEAAVNLMGDWAYGELLNAGKKPGTDFAWVAFPGKEDIFDYVGDGFSIPANNIPHAEAARAWLKTLMDPKIQTEFAAKKGSIPAVTSADISGLSEYQQEAAKSLASGAVVSSLAHAQAAGAEFAQTYADAVSTFNGSGNTDAFIASMTQAQKTQLGGSHHHHHH
modifications: asGBP8 (with signal peptide replaced with M and a GGSHHHHHH at C-terminus)
Thermostability ^apoTm [1]: 58 °C

B6: ttGBP1: glucose-binding protein from Thermus thermophilus, SEQ ID NO: 9 (protein)
chain: MKLEIFSWWAGDEGPALEALIRLYKQKYPGVEVINATVTGGAGVNARAVLKTRMLGGDPPDTFQVHAGMELIGTWVVANRMEDLSALFRQEGWLQAFPKGLIDLISYKGGIWSVPVNIHRSNVMWYLPAKLKGWGVNPPRTWDKFLATAQTLKQKGLEAPLALGENWTQQHLWESVALAVLGPDDWNNLWNGKLKFTDPKAVRAWEVFGRVLDAANKDAAGLSWQQAVDRVVQGKAAFNIMGDWAAGYMTTTLKLKPGTDFAWAPSPGTQGVFMMLSDSFGLPKGAKNRQNAINWLRLVGSKEGQDTSNPLKGSIAARLDSDPSKYNAYGQSAMRDWRSNRIVGSLVHGAVAPESFMSQFGTVMEIFLQTRNPQAAANAAQAIADQVGLGRLGQHHHHHH
modifications: ttGBP1 (with signal peptide replaced with M and a HHHHHH at C-terminus)
Thermostability ^apoTm [1]: >100 °C

B7: tsGBP2: glucose-binding protein from Thermus scotoductus, SEQ ID NO: 10 (protein)
chain: MKLEIFSWWAGDEGPALEALIRLYKQKYPGVEVINATVTGGAGVNAKAVLKTRMLGGDPPDTFQVHAGQELIGTWVVADRMEDLTSLFRQEGWLQAFPKGLIDLLSYKGGIWSVPVNIHRSNVMWYIPAKLKEWGVTPPKTWAEFLATAQTLKRKGLEAPLALGENWTQQHLWESVALATLGADGWNNLWSGKLKFTDPKAVAVWETFGKVLDAANKDAAGLSWQQAVDRVVQGKAAFNIMGDWAAGYMSTTLKLKPGTDFAWTPSPGTSGIFMMLSDSFGLPKGAKNRQNAINWLKLVGSKEGQDTFNPLKGSIAARLDSDPAKYNAYGQSAMKDWKSNRIVGSLVHGAVAPESFMSQFGTVMEIFLQSRNPQAAANAAQAIANQVGLGRGGSHHHHHH
modifications: tsGBP2 (with signal peptide replaced with M and a GGSHHHHHH at C-terminus)
Thermostability ^apoTm [1]: >100 °C

B8: dmGBP3: glucose-binding protein from Deinococcus maricopensis, SEQ ID NO: 11 (protein)
chain: MKLEIFSWWSGDEGPALEALVKLYKQKYPSVDVVNATVAGGAGTNAKAVLKTRMLGGDPPDSFQAHAGQELIGTWVVANRMEDLSSLFKSEGWTTKFPKDLLPLISSKGGIWSVPVNVHRSNVMWYIPANLKKWGVTAPKTWDQFLTTAKTLKTKNVTPLALGENWTQQHLWESVAVGTLGAQGWQNLWSGKLKFTDPKVVKVWDTFGKVLDATNKDASGLSWQQATDRVVNGQAAFNIMGDWAAGYLSTTKKLKPGTGFGWAPSPSTSGTFIFLADSFGLPKGAKDRAEALSWLKLLGSKQGQDTFNPLKGSIAARVDSDLSKYSTYSQSAAKDWKSNKIVGSLTHGAVAPESFTSTFGTVIDAFVASRNAQVAAATTQQLADKAGLGKGGSHHHHHH
modifications: dmGBP3 (with signal peptide replaced with M and a GGSHHHHHH at C-terminus)
Thermostability ^apoTm [1]: 47 °C
